This data set addresses SARS-CoV-2 spike pseudotyped lentivirus (PV) (SARS-CoV-2 (Wuhan-Hu-1)) (UniProt P0DTC2). Description: dot blot (filter binding).

A word on the Kd: it is a measure of binding affinity in units of concentration. Lower therefore signals a tighter complex.

Sequence “TTACGTCAAGGTGTCACTCCACGGGTTTGGCGTCGGGCCTGGCGGGGGGATAGTGCGGTGGAAGCATCTCTTTGGCGTG [MSA5]” showed a Kd of 0.0118 nM.
Take “TTACGTCAAGGTGTCACTCCCACTTTCCGGTTAATTTATGCTCTACCCGTCCACCTACCGGAAGCATCTCTTTGGCGTG [MSA1]”: the dissociation constant (Kd) was determined as 0.0227 nM.
